Reference: the supplement of paper PMC10567573
± gives the standard deviation.

Assay: protein stability index of a GFP-peptide fusion (GPS, HEK-293T) (PSI 1-6); higher = more stable
[1] = treatment: DMSO, c terminus: a fixed tail appended
[2] = treatment: MLN4924 1 uM, 8 h, c terminus: a fixed tail appended
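Further: 24-mer peptide tiles fused after GFP, lentivirally expressed, FACS-sorted into six equal bins by GFP/DsRed ratio, decoded by Illumina sequencing, PSI is the read-weighted mean bin number.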

Row | Sequence | protein stability index [1] | protein stability index [2] | protein stability index (treatment: DMSO, c terminus: native) | protein stability index (treatment: MLN4924 1 uM, 8 h, c terminus: native)
1 | WSLGVIMYEMLIGYPPFCSETPQE [STK38L] | 2.85 ± 0.59 | 2.52 ± 0.44 |  | 
2 | TLELCHDELFADLFNSNHKAGGAG [CEBPD] |  | 4.24 ± 1 |  | 
3 | LDVVDNQTEKLDTNITEVDAASVY [CASP6] | 5.06 ± 0.15 | 5.25 ± 0.15 |  | 
4 | LFSEASECMLLVFGIDVKEVDPTG [MAGEA10] | 2.3 ± 0.69 | 2.54 ± 0.21 |  | 
5 | TNDGNHPSCQETRDYAPPSRGYAY [RBMY1A1] | 4.33 ± 0.12 | 4.36 ± 0.11 |  | 
6 | GNPSTNSRVTASSGITIPKPPKPP [SMARCE1] | 4.67 ± 0.32 | 4.7 ± 0.13 |  | 
7 | QNPAGELEGFQAQGHPPSLFPPKA [ATE1] | 4.66 ± 0.075 | 4.82 ± 0.17 |  | 
8 | FDLNNLDPELKNLFDMCGISEAQL [WASL] | 2.62 ± 0.55 | 2.83 ± 0.69 |  | 
9 | MTEWFMCAFSRTLPWSSVLRVWDM [TBC1D10A] | 3.32 ± 0.42 | 2.84 ± 0.23 |  | 
10 | KAYGWCSELIRHRRVHARKEPSH [ZNF232] |  |  | 2.75 ± 0.2 | 2.51 ± 0.44
11 | VTVRVPTHEEGSYLFWEFATDNYD [ACBD3] | 2.19 ± 0.34 | 2.31 ± 0.62 |  | 
12 | VFVCRVSAVLFYVNMYVSIVFFGL [P2RY14] | 3.36 ± 0.33 | 3.35 ± 0.54 |  | 
13 | QTRNGLGKDHEILRRRIENGAKEL [FUT8] | 4.34 ± 0.33 | 4.33 ± 0.1 |  | 
14 | RDRFKSFQRRNMIEPRERAKFKRK [NOP53] | 4.11 ± 0.47 | 4.54 ± 0.35 |  | 
15 | KVHYLFPDGKEMAEEYDEKTSELL [DPCD] | 4.32 ± 0.25 | 4.42 ± 0.12 |  | 
16 | GVCGDRATGFHFNAMTCEGCKGFF [VDR] | 2.28 ± 0.13 | 2.38 ± 0.19 |  | 
17 | GAQVKELEEKCQQPASELLQDVRV [TRIM15] | 5.4 ± 0.36 | 5.43 ± 0.12 |  | 
18 | TSGMGFHAPKIGSNGVEMAAKFPS [SDE2] | 3.53 ± 0.28 | 3.5 ± 0.27 |  | 
19 | RLVNEYVELVNAACNFEPHESFFS [ZER1] | 2.34 ± 0.4 | 2.1 ± 0.48 |  | 
20 | IKAVTHQVKFGQQNPRQVAQSEAE [ZC3H15] | 4.86 ± 0.2 | 4.9 ± 0.23 |  | 
21 | FLVLQSLLERQVEMTPEKFSVLME [FANCE] | 2.13 ± 0.39 | 2.11 ± 0.3 |  | 
22 | YEAGVLAFYDVTGGMSHLHTFRAT [TRIM14] | 2.47 ± 0.45 | 2.07 ± 0.45 |  | 
23 | YKFDPKTKRILTLQKANSWFNCRK [MMP1] | 2.67 ± 0.27 | 2.54 ± 0.28 |  | 

Row | Sequence | protein stability index [1] | protein stability index [2] | protein stability index (treatment: DMSO, c terminus: native) | protein stability index (treatment: MLN4924 1 uM, 8 h, c terminus: native)
24 | SLVAPLLLELAGEVTDTGDPIVRP [MYORG] | 3.23 ± 0.33 | 3.3 ± 0.23 |  | 
25 | AGQVTALPVNSPMNKGDTEVMKCI [CHGA] | 4.12 ± 0.34 | 4.57 ± 0.22 |  | 
26 | SQFKILVSLLENNIYVHDLLTFQQ [VPS39] | 3.02 ± 0.29 | 3.21 ± 0.6 |  | 
27 | QINDGMGGDGDDMEIFMEEMREIR [BEX3] | 4.81 ± 0.17 | 4.75 ± 0.28 |  | 
28 | LWFANAHLLSWFSPTIIFDNWIPL [DHCR7] | 2.92 ± 0.33 | 2.93 ± 0.16 |  | 
29 | LYFKDKIFNVAIPRFHMACPTFRV [FBXO3] | 2.98 ± 0.92 | 2.65 ± 0.68 |  | 
30 | PEMNGNGAVAPMDFTTAAEDQPIN [NOL4L] | 5.35 ± 0.26 | 5.47 ± 0.15 |  | 
31 | RAPHKESTLPRSGSSGGQQPSGMK [CHCHD6] | 4.96 ± 0.58 | 5.05 ± 0.46 |  | 
32 | AGDAEVCPTPARLATTEKKTEQQR [NOP53] | 5.37 ± 0.23 | 5.44 ± 0.16 |  | 
33 | PSPEPAGRRAALYVHWPYCEKRCS [RSAD1] | 2.78 ± 0.26 | 3.02 ± 0.41 |  | 
34 | WDMNSAPRLVSETAERKQEQKTGT [MFSD9] | 5.44 ± 0.2 | 5.38 ± 0.13 |  | 
35 | ESKEPIEEEPTGAGLNKDKETEER [SDE2] | 5.57 ± 0.34 | 5.7 ± 0.13 |  | 
36 | EAKEAKGSGYEKLGPSRDPDPLNI [RTP4] | 4.9 ± 0.21 | 4.91 ± 0.18 |  | 
37 | MAKTLVFSKVKTSLGLDHCHSFIS [ACSBG2] | 2.18 ± 0.58 | 1.82 ± 0.52 |  | 
38 | PKPEPPQLVLAYDYSREVNTTEEL [FEM1A] | 5.03 ± 0.19 | 4.94 ± 0.31 |  | 
39 | EERVALNTEIEKLGRSIVSSPQGK [PKD2L1] | 5.06 ± 0.16 | 5.15 ± 0.32 |  | 
40 | QKLDAFLQPLSKPLSSQPQAIVTE [MLH1] | 4.17 ± 0.3 | 4.21 ± 0.21 |  | 
41 | YSLAPNTPINQNVSLHQASLGGCS [NFE2L1] | 3.54 ± 0.1 | 3.65 ± 0.18 |  | 
42 | QSAYDVADMLKQYFRDLPEPLMTN [DLC1] | 2.67 ± 0.32 | 2.72 ± 0.33 |  | 
43 | NVNRTTANNDHTVLSLACAGGHLA [ANKRD17] | 3.57 ± 0.3 | 3.7 ± 0.36 |  | 
44 | HIDIVKELIKWRAAIVVNGHGMTP [FEM1B] | 2.15 ± 0.53 | 2.17 ± 0.26 |  | 
45 | CRVFWWLGDRDRSRAALVCRKWNQ [FBXO39] | 2.46 ± 0.87 | 2.06 ± 0.41 |  | 
